Non-standard residues stand in square brackets, D forms with d. No end group written: not given here. pS = N[C@@H](COP(=O)(O)O)C(=O)O

Test [1] relates to E-selectin expression in HUVEC. In words: Microinjection into HUVEC, TNFα activation, E-selectin staining. Type of test: cell-based, human. To be noted: 5 mg/ml microinjected, TNFα 3 hours. From the text:
Primary human vascular endothelial cells (HUVEC) respond to TNFα stimulation by surface expression of NF-κB regulated adhesion proteins such as ICAM-1, V-CAM-1 and E-selectin (Read et al., Immunity 2:493,1995; Chen et al., J. Immunol 155:3538, 1995). E-selectin expression is particularly NF-κB dependent and is the major inducible endothelial adhesion molecule for initial neutrophil attachment and rolling on activated endothelium. Stimulated cells may be fixed and stained to detect expression of one or more NF-κB regulated adhesion proteins.
HeLa cells were plated on a grid coverslips (Cellocate, Eppendorf) 18 hours before microinjection. Microinjection was performed with a 22 amino acid pIκBα peptide (pp21; Table I and SEQ ID NO:9) or a control phospho-Fos peptide (SEQ ID NO:10) using a semi-automated apparatus (Eppendorf). Peptides were injected into the cell cytoplasm at a concentration of 5 mg/ml in 100 mM KCl, 5 mM Na2 HPO4 (pH 7.2), and immediately activated with TNFα (200 units/mL) for either 20 minutes (for NF-κB translocation) or 3 hours (for E-selectin expression). Following activation, the cells were fixed and stained with p65 specific antibodies (Mercurio et al., Genes & Dev. 7:705, 1993; Santa Cruz) or monoclonal anti-E-selectin antibodies (R&D Systems). […]

Test [2] relates to NF-κB nuclear translocation in HeLa cells. The test is described as follows: Microinjection into HeLa cells, TNFα activation, p65 nuclear staining. The class given is cell-based, human. The conditions noted are these: 5 mg/ml microinjected, TNFα 200 units/mL for 20 minutes. The procedure:
Following microinjection, cells are stimulated (e.g., with TNFα) and incubated to allow NF-κB activation. In HeLa cells, TNFα induces rapid nuclear translocation of NF-κB into the nucleus, which may be detected by staining with p65-specific antibodies. Modulating agents induce a statistically significant decrease in NF-κB translocation, and may reduce such translocation to undetectable levels.
HeLa cells were plated on a grid coverslips (Cellocate, Eppendorf) 18 hours before microinjection. Microinjection was performed with a 22 amino acid pIκBα peptide (pp21; Table I and SEQ ID NO:9) or a control phospho-Fos peptide (SEQ ID NO:10) using a semi-automated apparatus (Eppendorf). Peptides were injected into the cell cytoplasm at a concentration of 5 mg/ml in 100 mM KCl, 5 mM Na2 HPO4 (pH 7.2), and immediately activated with TNFα (200 units/mL) for either 20 minutes (for NF-κB translocation) or 3 hours (for E-selectin expression). Following activation, the cells were fixed and stained with p65 specific antibodies (Mercurio et al., Genes & Dev. 7:705, 1993; Santa Cruz) or monoclonal anti-E-selectin antibodies (R&D Systems).

Test [3] has as its target pIκBα ubiquitination (E3 ubiquitin ligase). The test is described as follows: In vitro ubiquitination assay of phosphorylated, NF-κB complex-associated IκBα. The class given is biochemical, human. To be noted: complex-associated 35S-pIκBα, HeLa extract, Bestatin 40 μg/ml; read-out: IC50 of inhibition of the pIκBα ubiquitin conjugation reaction. The procedure:
Following incubation, 1 μl of anti-p65 serum was added, and the NF-κB immune complex was immobilized to Protein A-Sepharose® and subjected to in vitro ubiquitination in HeLa cell extract as described by Alkalay et al. Ubiquitinated proteins were separated by SDS-PAGE and visualized by autoradiography.
To identify the IκBα-ubiquitin ligase recognition motif, various peptides were added at varying concentrations to the reaction mixtures in the presence of the peptidase inhibitor Bestatin (40 μg/ml). The peptides spanned the N-terminal signaling domain of the protein, and were phosphorylated at one or both serine residues (32 and 36), or were unmodified or serine-substituted. These peptides were included in the ubiquitination reaction at different concentrations and tested for inhibition of pIκBα specific ubiquitination. When conjugation of free IκBα was monitored, the translated protein was added directly to the conjugation reaction mixture.

The target of test [4] is specific E3 ubiquitin ligase that recognises phosphorylated IκB.

In the case of “CKKERLLDDRHDS*GLDS*MKDEE (CKKERLLDDRHD[pS]GLD[pS]MKDEE) [pp21]”, in test [1], the “microinjected cells with inhibition of E-selectin expression” value was 70%-80%. Further, the “microinjected cells in which TNFα-stimulated NF-κB activation was abolished” value in test [2] is 50%-70%. In general, IC50 refers to the concentration at which inhibition is half-maximal. Consider CDS*GLDS*M (CD[pS]GLD[pS]M) [pp7], for which the IC50 in test [3] was 10 µM. In test [4], CKKERLLDDRHDSGLD[pS]MKDEE [singly phosphorylated IκBα peptide ppS36] displayed an IC50 of inhibition of the pIκBα conjugation of 400 µM.

CDDRHD[pS]GLD[pS]MKDEE [doubly phosphorylated IκBα peptide pp15] yielded an IC50 of inhibition of the pIκB conjugation reaction in test [4] of 5 µM. For the molecule CERLLDDRHD[pS]GLD[pS]MKDEE [doubly phosphorylated IκBα peptide pp19], the IC50 of inhibition of the pIκB conjugation reaction in test [4] was found to be 5 µM. As for CKKERLLDDRHD[pS]GLDSMKDEE [singly phosphorylated IκBα peptide ppS32], in test [4], the IC50 of inhibition of the pIκBα conjugation is 400 µM. Molecule CKKERLLDDRHD[pS]GLD[pS]MKDEE [doubly phosphorylated IκBα peptide pp21] yielded an IC50 of inhibition of the pIκB conjugation reaction in test [4] of 5 µM. For the molecule CDDRHD[pS]GLD[pS]M [doubly phosphorylated IκBα peptide pp11], in test [4], the IC50 of inhibition of the pIκB conjugation reaction came out at 5 µM. In the case of CD[pS]GLD[pS]M [doubly phosphorylated IκBα peptide pp7], in test [4], the IC50 of inhibition of pIκBα ubiquitination is 10 µM.

(Values after patent US5932425A, “Compositions and methods for modulating cellular NF-κB activation” (Signal Pharmaceuticals, Inc., priority 1997, dated 1999).)
